In the FLAb antibody collection (doi:10.7554/elife.23156):

B1: scFv; the commonest letter at each place (parent)
chain 1: EVKLDETGGGLVQPGRPMKLSCVASGFTFSDYWMNWVRQSPEKGLEWVAQIRNKPYNYETYYSDSVKGRFTISRDDSKSSVYLQMNNLRVEDMGIYYCTGSYYGMDYWGQGTSVTVS
chain 2: DVVMTQTPLSLPVSLGDQASISCRSSQSLVHSNGNTYLRWYLQKPGQSPKVLIYKVSNRFSGVPDRFSGSGSGTDFTLKISRVEAEDLGVYFCSQSTHVPWTFGGGTKLEIK

What was measured:
fluorescein = variants of: B1; assay: Kd (Tite-Seq); details: with fluorescein; format: scFv 4-4-20, heavy + light
[1] = variants of: B1; assay: yeast surface expression (ratio to wild type); higher = more expressed; details: format: scFv 4-4-20, heavy + light

Row | Variant | Kd (fluorescein) [µM] | yeast surface expression [1]
1 | chain 1 Y32T M34E | ≥ 10 | 0.451
2 | chain 1 Y32T N35P | ≥ 10 | 0.612
3 | chain 1 Y32T V37A | ≥ 10 | 0.65
4 | chain 1 Y32T V37E | ≥ 10 | 0.222
5 | chain 1 Y32T V37G | ≥ 10 | 1.64
6 | chain 1 Y32T V37H | ≥ 10 | 0.624
7 | chain 1 Y32T W36R | ≥ 10 | 0.193
8 | chain 1 Y32V | ≥ 10 | 1.02
9 | chain 1 Y32V M34D | ≥ 10 | 0.218
10 | chain 1 Y32V M34Q | ≥ 10 | 0.849
11 | chain 1 Y32V V37I | ≥ 10 | 1.03
12 | chain 1 Y32V V37L | ≥ 10 | 0.677
13 | chain 1 Y32V W33N | ≥ 10 | 1.16
14 | chain 1 Y32W | ≥ 10 | 0.805
15 | chain 1 Y32W M34W | ≥ 10 | 0.838
16 | chain 1 Y32W N35T | ≥ 10 | 0.786
17 | chain 1 Y32W V37S | ≥ 10 | 0.579
18 | chain 1 Y32W W33F | ≥ 10 | 0.941
19 | chain 1 Y32W W33P | ≥ 10 | 0.825
20 | chain 1 Y32W W33Q | ≥ 10 | 0.886
21 | chain 1 Y32W W33Y | ≥ 10 | 0.945
22 | chain 1 Y32W W36A | ≥ 10 | 0.204
23 | chain 1 Y32W W36Q | ≥ 10 | 0.936
24 | chain 1 Y102A D106L | ≥ 10 | 0.691
25 | chain 1 Y102A G109K | ≥ 10 | 0.279
26 | chain 1 Y102A Y103E | ≥ 10 | 1.23

Row | Variant | Kd (fluorescein) [µM] | yeast surface expression [1]
27 | chain 1 Y102A Y103K G109C | ≥ 10 | 0.237
28 | chain 1 Y102A Y107P | ≥ 10 | 0.707
29 | chain 1 Y102C D106L | ≥ 10 | 0.306
30 | chain 1 Y102C G104D | ≥ 10 | 0.919
31 | chain 1 Y102C G104H | ≥ 10 | 0.609
32 | chain 1 Y102C G109R | ≥ 10 | 0.304
33 | chain 1 Y102C M105P | ≥ 10 | 0.69
34 | chain 1 Y102D | ≥ 10 | 1.16
35 | chain 1 Y102D D106Q | ≥ 10 | 0.733
36 | chain 1 Y102D D106T | ≥ 10 | 1.12
37 | chain 1 Y102D M105I | ≥ 10 | 1.08
38 | chain 1 Y102D Y103L G109P | ≥ 10 | 0.465
39 | chain 1 Y102D Y107K G109H | ≥ 10 | 0.302
40 | chain 1 Y102E | ≥ 10 | 0.889
41 | chain 1 Y102E D106M | ≥ 10 | 0.531
42 | chain 1 Y102E D106S | ≥ 10 | 1.01
43 | chain 1 Y102E G104E | ≥ 10 | 0.934
44 | chain 1 Y102E G104N | ≥ 10 | 0.819
45 | chain 1 Y102E G109K | ≥ 10 | 0.317
46 | chain 1 Y102E G109N | ≥ 10 | 0.382
47 | chain 1 Y102E M105A | ≥ 10 | 0.815
48 | chain 1 Y102E M105P | ≥ 10 | 0.839
49 | chain 1 Y102E Y103I | ≥ 10 | 0.862
50 | chain 1 Y102E Y107A | ≥ 10 | 0.904
51 | chain 1 Y102F G104H | ≥ 10 | 0.927

Further lines, with some results ahead:

Row | Kd (fluorescein) [µM] | Variant | yeast surface expression [1]
52 | ≥ 10 | chain 1 Y32M V37T | 0.538
53 | ≥ 10 | chain 1 Y32M W33D V37C | 0.778
54 | ≥ 10 | chain 1 Y32M W33E | 1.18
55 | ≥ 10 | chain 1 Y32M W33V | 0.941
56 | ≥ 10 | chain 1 Y32M W36D | 0.63
57 | ≥ 10 | chain 1 Y32M W36M | 0.672
58 | ≥ 10 | chain 1 Y32N | 1.21
59 | 0.021 | chain 1 Y32N M34E | 
60 | ≥ 10 | chain 1 Y32N M34G | 0.608
61 | ≥ 10 | chain 1 Y32N M34V | 0.683
62 | 0.0113 | chain 1 Y32N V37G | 2.76
63 | ≥ 10 | chain 1 Y32P | 0.908
64 | ≥ 10 | chain 1 Y32P M34N | 0.503
65 | 0.195 | chain 1 Y32P N35K | 0.466
66 | ≥ 10 | chain 1 Y32P N35Y | 0.488
67 | ≥ 10 | chain 1 Y32P V37G | 2.54
68 | ≥ 10 | chain 1 Y32P V37Y | 0.716
69 | 2.47 | chain 1 Y32P W33C | 0.832
70 | ≥ 10 | chain 1 Y32P W33I | 0.908
71 | ≥ 10 | chain 1 Y32P W36C | 0.649
72 | ≥ 10 | chain 1 Y32P W36K | 0.563
73 | ≥ 10 | chain 1 Y32Q | 0.929

Row | Kd (fluorescein) [µM] | Variant | yeast surface expression [1]
74 | ≥ 10 | chain 1 Y32Q M34G V37K | 1.04
75 | ≥ 10 | chain 1 Y32Q M34I | 0.765
76 | ≥ 10 | chain 1 Y32Q W33N | 0.726
77 | 7.72 | chain 1 Y32Q W33V N35E | 1.51
78 | ≥ 10 | chain 1 Y32Q W36N V37K | 0.902
79 | ≥ 10 | chain 1 Y32Q W36V | 0.479
80 | 0.064 | chain 1 Y32R | 0.954
81 | ≥ 10 | chain 1 Y32R M34S | 0.191
82 | ≥ 10 | chain 1 Y32R M34W V37M | 0.728
83 | ≥ 10 | chain 1 Y32R N35K | 1.99
84 | ≥ 10 | chain 1 Y32R W33H W36S | 0.723
85 | ≥ 10 | chain 1 Y32R W33I | 0.763
86 | ≥ 10 | chain 1 Y32R W33M | 0.809
87 | ≥ 10 | chain 1 Y32R W36V | 0.547
88 | 7.72 | chain 1 Y32R W36Y | 0.635
89 | 0.155 | chain 1 Y32S | 1.06
90 | ≥ 10 | chain 1 Y32S M34K V37D | 0.882
91 | ≥ 10 | chain 1 Y32S M34S V37M | 0.65
92 | ≥ 10 | chain 1 Y32S N35E V37Q | 0.677
93 | ≥ 10 | chain 1 Y32S N35G V37K | 0.649
94 | ≥ 10 | chain 1 Y32S N35H | 0.89
95 | 8.13 | chain 1 Y32S V37F | 0.891

Row | Kd (fluorescein) [µM] | Variant | yeast surface expression [1]
96 | ≥ 10 | chain 1 Y32S W33F | 0.984
97 | ≥ 10 | chain 1 Y32S W33S | 0.838
98 | 5.96 | chain 1 Y32S W36F | 0.853
99 | ≥ 10 | chain 1 Y32T | 1.04
100 | 7.72 | chain 1 Y32V V37K | 0.425
101 | 0.205 | chain 1 Y32W M34N | 0.386
102 | 0.00162 | chain 1 Y102A | 1.17
103 | 0.0038 | chain 1 Y102A D106S | 1.06
104 | 0.00575 | chain 1 Y102A M105F | 0.979
105 | 0.0113 | chain 1 Y102A M105N | 1.14
106 | 0.176 | chain 1 Y102A M105T | 1.08
107 | 0.000504 | chain 1 Y102A W108P | 0.525
108 | 4.14 | chain 1 Y102A Y103K | 1.15
109 | 0.00334 | chain 1 Y102C | 0.924
110 | 2.47 | chain 1 Y102C G109A | 0.619
111 | ≤ 0.000316 | chain 1 Y102C W108I | 0.7
112 | 0.000604 | chain 1 Y102D W108M | 0.926
113 | 0.00917 | chain 1 Y102D W108T | 0.785
114 | 0.000846 | chain 1 Y102E W108I | 0.763
115 | 5.1 | chain 1 Y102E Y103A | 0.993
116 | 0.00309 | chain 1 Y102F | 0.776
